Data published in PMC5348764, “Functional differentiation of 3-ketosteroid Δ^1-dehydrogenase isozymes in Rhodococcus ruber strain Chol-4” (Microbial Cell Factories, 2017).

Legend:
KstD2 = biological target: T1, KstD2 (Rhodococcus ruber, UniProt I0B6I6); assay: DCPIP reduction at […] nm, cell-free extract, Michaelis-Menten fit; details: read-out: KstD2 / Km; 80 µM DCPIP as electron acceptor, 50 mM Tris pH 7, 30 °C
T1 sequence (I0B6I6 1-564): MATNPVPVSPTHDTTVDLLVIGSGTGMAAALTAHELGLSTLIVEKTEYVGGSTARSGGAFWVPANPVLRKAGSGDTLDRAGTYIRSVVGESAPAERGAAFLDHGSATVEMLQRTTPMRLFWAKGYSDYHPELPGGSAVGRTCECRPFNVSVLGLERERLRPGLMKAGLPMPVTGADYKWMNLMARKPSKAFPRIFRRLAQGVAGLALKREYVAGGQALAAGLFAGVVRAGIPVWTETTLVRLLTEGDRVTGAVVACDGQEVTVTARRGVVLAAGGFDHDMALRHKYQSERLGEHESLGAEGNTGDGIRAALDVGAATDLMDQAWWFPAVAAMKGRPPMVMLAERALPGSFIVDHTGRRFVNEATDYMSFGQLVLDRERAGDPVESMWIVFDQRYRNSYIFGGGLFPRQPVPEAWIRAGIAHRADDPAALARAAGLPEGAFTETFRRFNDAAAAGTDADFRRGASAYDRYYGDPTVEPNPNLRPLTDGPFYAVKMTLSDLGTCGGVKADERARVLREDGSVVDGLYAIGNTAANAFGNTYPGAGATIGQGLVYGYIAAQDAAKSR

KstD1 = biological target: T2, KstD1 (Rhodococcus ruber, UniProt I0B6J0); assay: as above; details: read-out: KstD1 / Km; 80 µM DCPIP as electron acceptor, 50 mM Tris pH 7, 30 °C
T2 sequence (I0B6J0 1-511): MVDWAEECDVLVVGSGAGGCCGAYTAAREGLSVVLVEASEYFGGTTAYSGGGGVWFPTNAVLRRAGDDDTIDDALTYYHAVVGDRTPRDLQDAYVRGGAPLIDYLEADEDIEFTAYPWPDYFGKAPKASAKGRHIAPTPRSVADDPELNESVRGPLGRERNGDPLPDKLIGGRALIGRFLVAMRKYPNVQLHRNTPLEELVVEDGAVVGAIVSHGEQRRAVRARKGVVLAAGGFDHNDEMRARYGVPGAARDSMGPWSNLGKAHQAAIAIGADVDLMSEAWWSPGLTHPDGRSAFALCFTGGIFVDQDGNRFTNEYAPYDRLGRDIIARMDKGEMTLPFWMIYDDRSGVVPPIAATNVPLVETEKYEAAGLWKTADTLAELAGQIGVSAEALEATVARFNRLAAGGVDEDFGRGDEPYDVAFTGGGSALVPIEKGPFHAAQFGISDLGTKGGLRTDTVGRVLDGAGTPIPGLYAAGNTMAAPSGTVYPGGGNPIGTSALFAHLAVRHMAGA

[1] = substrate: CC(=O)[C@H]1CC[C@H]2[C@@H]3CCC4=CC(=O)CC[C@]4(C)[C@H]3CC[C@]12C; assay: cells, lysate or membranes; details: 80 µM DCPIP as electron acceptor, 50 mM Tris pH 7, 30 °C
[2] = substrate: C[C@]12CCC(=O)C[C@@H]1CC[C@@H]1[C@@H]2CC[C@]2(C)[C@@H](O)CC[C@@H]12; assay: cells, lysate or membranes
[3] = substrate: C[C@]12CC[C@H]3[C@@H](CCC4=CC(=O)CC[C@@]43C)[C@@H]1CC[C@@H]2C(=O)CO; assay: cells, lysate or membranes; details: 80 µM DCPIP as electron acceptor, 50 mM Tris pH 7, 30 °C
[4] = substrate: C[C@H](C(=O)O)[C@H]1CC[C@H]2[C@@H]3CCC4=CC(=O)CC[C@]4(C)[C@H]3CC[C@]12C; assay: cells, lysate or membranes; details: 80 µM DCPIP as electron acceptor, 50 mM Tris pH 7, 30 °C
[5] = substrate: C[C@]12CCC(=O)C=C1CC[C@@H]1[C@@H]2CC[C@]2(C)C(=O)CC[C@@H]12; assay: cells, lysate or membranes; details: pH 7.0; 30.0 °C
[6] = substrate: C[C@]12CC[C@H]3[C@@H](CCC4=CC(=O)CC[C@@]43C)[C@@H]1CC[C@@H]2O; assay: cells, lysate or membranes; details: pH 7.0; 30.0 °C
[7] = substrate: C[C@]12C[C@H](O)[C@H]3[C@@H](CCC4=CC(=O)CC[C@@]43C)[C@@H]1CC[C@@H]2C(=O)CO; assay: cells, lysate or membranes; details: 80 µM DCPIP as electron acceptor, 50 mM Tris pH 7, 30 °C
[8] = substrate: [H][C@@]12CCC3=CC(=O)CC[C@]3(CO)[C@@]1([H])CC[C@]1(C)C(=O)CC[C@@]21[H]; assay: cells, lysate or membranes; details: pH 7.0; 30.0 °C

## C[C@]12CCC(=O)C=C1CC[C@H]1[C@@H]3CCC(=O)[C@@]3(C)CC[C@@]12O [9OHAD, 9α-hydroxy-4-androstene-3,17-dione]
KstD2
  Km: 543 ± 77.8 µM
KstD1
  Km: 22.1 ± 7 µM

B1: KstD3 (Rhodococcus ruber) (protein)
chain: MIKQEYDIVVVGSGAGGMTAALTAAHRGASVVLVEKAPHYGGSSARSGGGVWIPNNEVLGAAGVTDTPEAARTYLHSIIGDVVPAGKIDTYIDRGPEMLSFVLEHSALELQWVPGYSDYYPEAPGGRLGGRSVEPKPFDGKRLGDDLALLEPDYVKGPPNFVITQADYKWLNLLMRNPRGPVRAAKVGVRYLWARARRRHLLVRGQALMAGLRMGLRDAGVPLLLNTALTDLVVEDGVVRGVRVESDGQQRTVRARRGVVIASGGFEHNEQMRTQYQRAPIGTEWTVGAKANTGDGIRAGQSLGAAVDFMDDAWWGPSFPLTGGPWFALSERSLPGSMMVNAAGRRFVNESAPYVEAVHAMYGGRHGRGDGPGENIPCWMILDQRYRNRYTFAGITPRSPFPKRWLKAGVVVRAGSIAELAGKIGVPAAALTATVERFNGFARAGRDEDFGRGESGYDHYYGDPRNKPNPSLGVIDKAPFYAIKVVPGDLGTKGGLRTDADARVLREDGTVIEGLYAAGNASGPVMGHTYAGPGATIGPAMTFAYLAVLDALARPEQPAVPPVSETVEQH
[1]
  Km: 43.6 ± 2.9 µM
[2]; 80 µM DCPIP as electron acceptor, 50 mM Tris pH 7, 30 °C
  Km: 181.1 ± 42.6 µM
[3]
  Km: 111.3 ± 4.0 µM

B2: KstD2 (Rhodococcus ruber) (protein)
chain: T1 sequence (I0B6I6 1-564)
[1]
  Km: 33.8 ± 4.9 µM
[4]
  Km: 38.2 ± 6.6 µM
[5]
  Km: 40.1 ± 8.7 µM
[2]; pH 7.0, 30.0 °C
  Km: 24.57 ± 7.8 µM
[3]
  Km: 42.5 ± 5.8 µM
[6]
  Km: 107.9 ± 18.5 µM
[7]
  Km: 374.3 ± 74.5 µM
[8]
  Km: 347.4 ± 41.7 µM

B3: KstD1 (Rhodococcus ruber) (protein)
chain: T2 sequence (I0B6J0 1-511)
[1]
  Km: 27.9 ± 9.5 µM
[4]
  Km: 76.1 ± 15.7 µM
[5]
  Km: 34.2 ± 3.8 µM
[3]
  Km: 21.6 ± 4.5 µM
[6]
  Km: 28.8 ± 7.4 µM
[7]
  Km: 161.6 ± 7.6 µM
[8]
  Km: 368.8 ± 102.4 µM
